In patent US20030166571A1 (SYNVAX, published 2003):
Numbered stars: 1 amine (or outer) side, 2 acyl side, 3 side chain; on linkers, the order of the positions; unused ones are H or OH. Square brackets hold non-standard residues; d marks the D form. Ends that are not written are not given here. * marks the point of attachment. Tyr(BN,3-Cl) = tyrosine with benzyl (BN) and 3-Cl, O=C([C@H](Cc1ccc(OCc2ccccc2)c(Cl)c1)N[*:1])[*:2]; Phe(4-NO2) = N[C@@H](Cc1ccc([N+](=O)[O-])cc1)C(=O)O; Phe(4-SO3H) = N[C@@H](Cc1ccc(S(=O)(=O)O)cc1)C(=O)O; Trp(5-CN) = N#Cc1ccc2[nH]cc(C[C@H](N)C(=O)O)c2c1; Phe(4-COOH) = N[C@@H](Cc1ccc(C(=O)O)cc1)C(=O)O; Phe(4-CN) = N#Cc1ccc(C[C@H](N)C(=O)O)cc1; Phe(4-F) = N[C@@H](Cc1ccc(F)cc1)C(=O)O; Phe(4-Me) = Cc1ccc(C[C@H](N)C(=O)O)cc1; hPhe = N[C@@H](CCc1ccccc1)C(=O)O; Phg = N[C@H](C(=O)O)c1ccccc1; Ac6c = NC1(C(=O)O)CCCCC1; Pentanoyl = CCCCC(=O)*; Ahx = NCCCCCC(=O)O

How the values were obtained:
[1] = target: T1, human ORL-1 receptor (opioid receptor like 1) (human, UniProt P41146 1-370); assay: [3H]nociceptin displacement, membranes of CHO cells transfected with human ORL-1; Ki=IC50/(1+L/Kd)
T1 construct: whole, on cells; Assays were run on membranes of CHO cells transfected with human ORL-1; also called opiate receptor like 1; nociceptin receptor
Protocol: Receptor binding studies were conducted on human ORL1 (opiate receptor like 1) transfected into Chinese hamster ovary (CHO) cells using each of the hexapeptide analog compounds of Table 3. All the compounds were evaluated for binding affinities. […] The data shown in Table 5 represents the average±SEM of at least two experiments conducted in triplicate.
Cells are removed from the plates by scraping with a rubber policeman, and then homogenized in Tris buffer using a Polytron homogenizer. Following this homogenization step, the cellular mixture is centrifuged once and washed by an additional centrifugation at 40,000×g for 15 min. The pellet formed during the centrifugation is re-suspended in 50 mM Tris, pH 7.5. […] Samples of the suspension are then filtered over glass fiber filters using a Wallac cell harvester.
For the data in Table 5, binding was conducted as described above. IC₅₀ values and Hill coefficients were determined using the curve-fitting program Prism. K₁ values were calculated using the equation K₁=IC₅₀/(1+[L]/Kd). […] The data in Table 5 represent the average±SEM of at least two experiments conducted in triplicate.

[2] = target: T1, human ORL-1 receptor (opioid receptor …); assay: cell-based or functional assay

T1 sequence (P41146 whole entry): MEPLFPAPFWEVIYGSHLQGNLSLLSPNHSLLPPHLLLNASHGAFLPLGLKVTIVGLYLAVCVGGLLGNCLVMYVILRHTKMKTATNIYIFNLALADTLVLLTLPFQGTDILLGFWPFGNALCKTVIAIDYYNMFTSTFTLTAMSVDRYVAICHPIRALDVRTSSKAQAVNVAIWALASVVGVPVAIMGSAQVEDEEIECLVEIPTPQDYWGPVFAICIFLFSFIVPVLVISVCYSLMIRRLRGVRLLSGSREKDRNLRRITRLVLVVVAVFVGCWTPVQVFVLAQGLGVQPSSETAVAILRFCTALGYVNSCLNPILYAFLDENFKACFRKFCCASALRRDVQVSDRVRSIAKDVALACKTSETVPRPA

Binder	Ki [1] [nM]	% Stimulation of [35S]GTPγS binding [2] [%]	EC50 (nM) of stimulation of [35S]GTPγS binding [2] [nM]
Ac-R[Phe(4-SO3H)]YRWR-NH2 (also called Ac-Arg-Phe(SO3H)-Tyr-Arg-Trp-Arg-NH2) [VII-27-B]	155		
Ac-R[Phe(4-NO2)]YRWR-NH2 (SMILES CC(=O)N[C@@H](CCCNC(=N)N)C(=O)N[C@@H](Cc1ccc([N+](=O)[O-])cc1)C(=O)N[C@@H](Cc1ccc(O)cc1)C(=O)N[C@@H](CCCNC(=N)N)C(=O)N[C@@H](Cc1c[nH]c2ccccc12)C(=O)N[C@@H](CCCNC(=N)N)C(N)=O, also called Ac-Arg-Phe(NO2)-Tyr-Arg-Trp-Arg-NH2) [VII-23-B]	0.44	56.6	15.7
Ac-R[Phe(4-Me)]YRWR-NH2 (SMILES CC(=O)N[C@@H](CCCNC(=N)N)C(=O)N[C@@H](Cc1ccc(C)cc1)C(=O)N[C@@H](Cc1ccc(O)cc1)C(=O)N[C@@H](CCCNC(=N)N)C(=O)N[C@@H](Cc1c[nH]c2ccccc12)C(=O)N[C@@H](CCCNC(=N)N)C(N)=O, also called Ac-Arg-Phe(4-Me)-Tyr-Arg-Trp-Arg-NH2) [VII-15-B]	0.48	59.8	18.8
Ac-RYY[Ahx]WR-NH2 (SMILES CC(=O)N[C@@H](CCCNC(=N)N)C(=O)N[C@@H](Cc1ccc(O)cc1)C(=O)N[C@@H](Cc1ccc(O)cc1)C(=O)NCCCCCC(=O)N[C@@H](Cc1c[nH]c2ccccc12)C(=O)N[C@@H](CCCNC(=N)N)C(N)=O, also called Ac-Arg-Tyr-Tyr-ε-aminocaproyl-Trp-Arg-NH2) [VII-55-A]	39	26.6	1230
{β‑aminoisobutryl}-RYYRWR-NH2 (also called β-aminoisobutryl-Arg-Tyr-Tyr-Arg-Trp-Arg-NH2) [VII-3-A]	1.18	29.1	68
Ac-RY[Phe(4-F)]RWR-NH2 (SMILES CC(=O)N[C@@H](CCCNC(=N)N)C(=O)N[C@@H](Cc1ccc(O)cc1)C(=O)N[C@@H](Cc1ccc(F)cc1)C(=O)N[C@@H](CCCNC(=N)N)C(=O)N[C@@H](Cc1c[nH]c2ccccc12)C(=O)N[C@@H](CCCNC(=N)N)C(N)=O, also called Ac-Arg-Tyr-Phe(4-F)-Arg-Trp-Arg-NH2) [VII-61-B]	0.05	70.4	2
Ac-R[Tyr(4-Me)]YRWR-NH2 (also called Ac-Arg-Tyr(4-Me)-Tyr-Arg-Trp-Arg-NH2) [VII-35-C]	0.43	52.1	51.1
Ac-[Ahx]YYRWR-NH2 (SMILES CC(=O)NCCCCCC(=O)N[C@@H](Cc1ccc(O)cc1)C(=O)N[C@@H](Cc1ccc(O)cc1)C(=O)N[C@@H](CCCNC(=N)N)C(=O)N[C@@H](Cc1c[nH]c2ccccc12)C(=O)N[C@@H](CCCNC(=N)N)C(N)=O, also called Ac-ε-aminocaproyl-Tyr-Tyr-Arg-Trp-Arg-NH2) [VII-53-B]	29.1	39.5	167
Ac-R[Tyr(4-Me)][Tyr(4-Me)]RWR-NH2 (also called Ac-Arg-Tyr(4-Me)-Tyr(4-Me)-Arg-Trp-Arg-NH2) [VII-37-B]	6.29	< 20	
Ac-R[hPhe][hPhe]RWR-NH2 (SMILES CC(=O)N[C@@H](CCCNC(=N)N)C(=O)N[C@@H](CCc1ccccc1)C(=O)N[C@@H](CCc1ccccc1)C(=O)N[C@@H](CCCNC(=N)N)C(=O)N[C@@H](Cc1c[nH]c2ccccc12)C(=O)N[C@@H](CCCNC(=N)N)C(N)=O, also called Ac-Arg-hPhe-hPhe-Arg-Trp-Arg-NH2) [VII-49-B]	5.49	< 20	
Ac-R[Phe(4-CN)]YRWR-NH2 (SMILES CC(=O)N[C@@H](CCCNC(=N)N)C(=O)N[C@@H](Cc1ccc(C#N)cc1)C(=O)N[C@@H](Cc1ccc(O)cc1)C(=O)N[C@@H](CCCNC(=N)N)C(=O)N[C@@H](Cc1c[nH]c2ccccc12)C(=O)N[C@@H](CCCNC(=N)N)C(N)=O, also called Ac-Arg-Phe(4-CN)-Tyr-Arg-Trp-Arg-NH2) [VII-43-C]	0.15	49.7	29.5
Ac-RYYRW[Ahx]-NH2 (SMILES CC(=O)N[C@@H](CCCNC(=N)N)C(=O)N[C@@H](Cc1ccc(O)cc1)C(=O)N[C@@H](Cc1ccc(O)cc1)C(=O)N[C@@H](CCCNC(=N)N)C(=O)N[C@@H](Cc1c[nH]c2ccccc12)C(=O)NCCCCCC(N)=O, also called Ac-Arg-Tyr-Tyr-Arg-Trp-ε-aminocaproyl-NH2) [VII-57-C]	41.9	37.4	358
{β‑Nva}-RYYRWR-NH2 (also called β-Nva-Arg-Tyr-Tyr-Arg-Trp-Arg-NH2) [VII-2-A]	11.8	< 20	
Ac-R[Phe(4-F)][Phe(4-F)]RWR-NH2 (SMILES CC(=O)N[C@@H](CCCNC(=N)N)C(=O)N[C@@H](Cc1ccc(F)cc1)C(=O)N[C@@H](Cc1ccc(F)cc1)C(=O)N[C@@H](CCCNC(=N)N)C(=O)N[C@@H](Cc1c[nH]c2ccccc12)C(=O)N[C@@H](CCCNC(=N)N)C(N)=O, also called VII-33-C; Ac-Arg-Phe(4-F)-Phe(4-F)-Arg-Trp-Arg-NH2) [VII-33-B]	1.51	< 20	
Ac-RYYR[Trp(5-CN)]R-NH2 (SMILES CC(=O)N[C@@H](CCCNC(=N)N)C(=O)N[C@@H](Cc1ccc(O)cc1)C(=O)N[C@@H](Cc1ccc(O)cc1)C(=O)N[C@@H](CCCNC(=N)N)C(=O)N[C@@H](Cc1c[nH]c2ccc(C#N)cc12)C(=O)N[C@@H](CCCNC(=N)N)C(N)=O, also called Ac-Arg-Tyr-Tyr-Arg-Trp(5-CN)-Arg-NH2) [VII-51-A]	0.3	49.1	156
Ac-R[Phe(4-Me)][Phe(4-Me)]RWR-NH2 (SMILES CC(=O)N[C@@H](CCCNC(=N)N)C(=O)N[C@@H](Cc1ccc(C)cc1)C(=O)N[C@@H](Cc1ccc(C)cc1)C(=O)N[C@@H](CCCNC(=N)N)C(=O)N[C@@H](Cc1c[nH]c2ccccc12)C(=O)N[C@@H](CCCNC(=N)N)C(N)=O, also called Ac-Arg-Phe(4-Me)-Phe(4-Me)-Arg-Trp-Arg-NH2) [VII-17-B]	10.1	< 20	
[Ac6c]RYYRWR-NH2 (N-terminus assumed; SMILES N=C(N)NCCC[C@H](NC(=O)[C@H](Cc1c[nH]c2ccccc12)NC(=O)[C@H](CCCNC(=N)N)NC(=O)[C@H](Cc1ccc(O)cc1)NC(=O)[C@H](Cc1ccc(O)cc1)NC(=O)[C@H](CCCNC(=N)N)NC(=O)C1(N)CCCCC1)C(N)=O, also called 1-aminocyclohexanoyl-Arg-Tyr-Tyr-Arg-Trp-Arg-NH2) [VII-4-B]	9.25	< 20	
Ac-R[Phe(4-COOH)]YRWR-NH2 (SMILES CC(=O)N[C@@H](CCCNC(=N)N)C(=O)N[C@@H](Cc1ccc(C(=O)O)cc1)C(=O)N[C@@H](Cc1ccc(O)cc1)C(=O)N[C@@H](CCCNC(=N)N)C(=O)N[C@@H](Cc1c[nH]c2ccccc12)C(=O)N[C@@H](CCCNC(=N)N)C(N)=O, also called Ac-Arg-Phe(4-COOH)-Tyr-Arg-Trp-Arg-NH2) [VII-19-B]	40.6	45.5	854
Pentanoyl-RYYRWR-NH2 (SMILES CCCCC(=O)N[C@@H](CCCNC(=N)N)C(=O)N[C@@H](Cc1ccc(O)cc1)C(=O)N[C@@H](Cc1ccc(O)cc1)C(=O)N[C@@H](CCCNC(=N)N)C(=O)N[C@@H](Cc1c[nH]c2ccccc12)C(=O)N[C@@H](CCCNC(=N)N)C(N)=O, also called Pentanoyl-Arg-Tyr-Tyr-Arg-Trp-Arg-NH2; Pentanoyl-RYYRWR-NH2) [VII-7-B]	0.16	< 20	
Ac-R[Tyr(BN,3-Cl)]YRWR-NH2 (also called Ac-Arg-Tyr(BN*, 3-Cl)-Tyr-Arg-Trp-Arg-NH2) [VII-39-D]	0.03	89	0.3
Nipacotyl-RYYRWR-NH2 (also called Nipacotyl-Arg-Tyr-Tyr-Arg-Trp-Arg-NH2) [VII-1-A]	30.3	< 20	
Ac-RY[Phg]RWR-NH2 (SMILES CC(=O)N[C@@H](CCCNC(=N)N)C(=O)N[C@@H](Cc1ccc(O)cc1)C(=O)N[C@H](C(=O)N[C@@H](CCCNC(=N)N)C(=O)N[C@@H](Cc1c[nH]c2ccccc12)C(=O)N[C@@H](CCCNC(=N)N)C(N)=O)c1ccccc1, also called Ac-Arg-Tyr-Phg-Arg-Trp-Arg-NH2) [VII-13-B]	27		
Ac-R[Phe(4-F)]YRWR-NH2 (SMILES CC(=O)N[C@@H](CCCNC(=N)N)C(=O)N[C@@H](Cc1ccc(F)cc1)C(=O)N[C@@H](Cc1ccc(O)cc1)C(=O)N[C@@H](CCCNC(=N)N)C(=O)N[C@@H](Cc1c[nH]c2ccccc12)C(=O)N[C@@H](CCCNC(=N)N)C(N)=O, also called Ac-Arg-Phe(4-F)-Tyr-Arg-Trp-Arg-NH2) [VII-31-B]	0.52	54.4	35.7
Ac-R[Phg][Phg]RWR-NH2 (SMILES CC(=O)N[C@@H](CCCNC(=N)N)C(=O)N[C@H](C(=O)N[C@H](C(=O)N[C@@H](CCCNC(=N)N)C(=O)N[C@@H](Cc1c[nH]c2ccccc12)C(=O)N[C@@H](CCCNC(=N)N)C(N)=O)c1ccccc1)c1ccccc1, also called Ac-Arg-Phg-Phg-Arg-Trp-Arg-NH2) [VII-11-B]	30.4		
